Patent US10183062B2, “Treatment for cancer” (The University of Nottingham, priority 2013, dated 2019)
“Also recorded” adds a separate entry of the source.

Experiments:
[1] = system: NC(=O)C1=CN([C@@H]2O[C@H](COP(=O)(O)OP(=O)(O)OC[C@H]3O[C@@H](n4cnc5c(N)ncnc54)[C@H](O)[C@@H]3O)[C@@H](O)[C@H]2O)C=CC1; experiment: CB1954 nitroreductase activity, HPLC, purified His-tagged HsoNTR; type: biochemical, Haemophilus somnus 129PT; details: other: 37° C., pH 7.0
Excerpt: (§1) Genes encoding homologs of E. coli NfnB and Bacillus amyloliquefaciens YwrO from several bacteria were cloned into an E. coli expression vector for screening (see Methods below). These were the NfnB homolog from Neisseria meningitidis MC58 (‘NmeNTR’, accession number Q9K022), the NfnB homolog from Haemophilus somnus 129PT (‘HsoNTR’, accession number ZP_00122352.1), the NfnB homolog from Burkholderia fungorum LB400 (‘BfuNTR’, accession number ZP_00029570.1), the YwrO homolog from Vibrio cholerae (‘VchYwrO’, accession number Q9KNX3), the YwrO homolog from Rhodobacter sphaeroides (‘RspYwrO’, accession number ZP_00007082.1), and two YwrO homologs from Pseudomonas aeruginosa (‘PaeYwrO1’, accession number Q9HUJ0; and ‘PaeYwrO2’, accession number Q9I4B3).
(§2) For determination of CB1954 nitroreductase kinetic parameters, six-histidine affinity-tagged enzymes were purified from cell lysates purified using a Novagen His-Bind kit in accordance with the manufacturer's instructions.
(§3) CB1954 nitroreductase activity was determined essentially as described by Anlezark (6). Reaction mixtures containing 500 μM NADH or NADPH and a small quantity of enzyme (either crude lysate or purified enzyme) were assembled in pre-warmed (to 37° C.) 100 mM sodium phosphate buffer (pH 7.0), and started with the addition of 100 μM CB1954 and prompt mixing.
(§4) To determine initial reaction rates during preliminary screening of CB1954 nitroreductase candidates, aliquots of the reaction mixtures taken at various times were injected into a Partisphere SCX (100×4.7 mm) HPLC column and eluted isocratically at 2 ml/min with 130 mM NaH2PO4 (pH 5.0). Eluates were continuously monitored at 260 nm and 325 nm, and the absorbance spectra of eluting components recorded using a photodiode array detector. Peaks were identified with reference to standards and/or by their known absorbance spectra (7) and anticipated column retention times as appropriate. Rates were determined based on the decrease in the area under the CB1954 peak over time, normalised to the known starting concentration of 100 μM using the peak from the zero timepoint sample.
(§5) To determine initial reaction rates and CB1954 nitroreduction products in later experiments with purified proteins, peaks were identified as before, and rates were determined based on the increase in the area under the 4-hydroxylamine derivative peak over time, normalised using enzymatically-synthesised 4-hydroxylamine standards.
(§6) NmeNTR and HsoNTR were each affinity-tagged, over-expressed, purified, and the CB1954 nitroreductase activities of the purified proteins characterized using the HPLC assay. The reaction products and kinetic parameters of these enzymes with respect to CB1954 and NADH were determined (Table 1). […]

[2] = system: NC(=O)c1cc(N2CC2)c([N+](=O)[O-])cc1[N+](=O)[O-]; experiment: as above; type: biochemical, Haemophilus somnus 129PT; details: pH 7.0; for kcat: 37° C.
Excerpt: as §1, §2, §3, §4, §5, §6

[3] = system: NC(=O)C1=CN([C@@H]2O[C@H](COP(=O)(O)OP(=O)(O)OC[C@H]3O[C@@H](n4cnc5c(N)ncnc54)[C@H](O)[C@@H]3O)[C@@H](O)[C@H]2O)C=CC1; experiment: CB1954 nitroreductase activity, HPLC, purified His-tagged NmeNTR; type: biochemical, Neisseria meningitidis MC58; details: other: 37° C., pH 7.0
Excerpt: as §1, §2, §3, §4, §5
(§7) NmeNTR and HsoNTR were each affinity-tagged, over-expressed, purified, and the CB1954 nitroreductase activities of the purified proteins characterized using the HPLC assay. The reaction products and kinetic parameters of these enzymes with respect to CB1954 and NADH were determined (Table 1). […] Moreover, the kinetic parameters of HsoNTR and NmeNTR differ dramatically from those of E. coli NfnB and other published enzymes (Table 1). […] NmeNTR would therefore approach saturation with CB1954 in a therapeutic regime using the maximum clinically-recommended dose, so the prodrug would be efficiently activated and high levels of tumour-specific cytotoxicity achieved.

[4] = system: NC(=O)c1cc(N2CC2)c([N+](=O)[O-])cc1[N+](=O)[O-]; experiment: as above; type: biochemical, Neisseria meningitidis MC58; details: pH 7.0
Excerpt: as §1, §2, §3, §4, §5, §7

[5] = system: E. coli NfnB nitroreductase, wild type; details: Knox et al., 1992; read-out: Km^NADH; cited from earlier work
[6] = system: E. coli NfnB variant N71S/F124K; details: Searle et al., 2004 and Race et al., 2007; read-out: Km^NADH; cited from earlier work
[7] = system: BliNTR, NTR from Bacillus licheniformis; details: Emptage et al., 2009; read-out: Km^NADH; cited from earlier work
[8] = CB1954 nitroreductase activity of purified His-tagged proteins (HPLC assay); type: biochemical
Method: as §2, §3, §5, §7

[9] = Specific menadione reductase activity in lysates of E. coli cells (screen for functional expression); type: biochemical; details: E. coli lysates containing expression plasmid
Method: In an initial screen for functional expression of each of the cloned genes, specific menadione reductase activity was determined in lysates of E. coli cells containing the NfnB or YwrO homolog expression plasmid. Enzymes from these families are expected to be NAD(P)H-dependent quinone reductases regardless of their nitroreductase activity against CB1954, and a photospectrometric menadione reductase assay is available (see Methods below), so this approach provides a convenient means to assess functional expression.
(§8) Lysates of E. coli clones containing pMTL1015-based enzyme expression plasmids were prepared for preliminary characterisation of enzyme activities. […]
Menadione reductase activity was determined by the method of Knox (5). […] Reduction of cytochrome C was recorded by measuring increase in absorbance at 550 nm. Specific activities were calculated using the total protein concentrations of cell lysates, which were determined using the Bradford reagent (Sigma-Aldrich). Aliquots of cell lysates were mixed with 250 μl of Bradford reagent and incubated in the dark at room temperature for 5 min before absorbance was measured at 595 nm. Absorbance values were compared to those obtained using known concentrations of bovine serum albumin.

[10] = Screen for CB1954 nitroreductase activity in E. coli lysates (HPLC); type: biochemical; details: 100 μM CB1954
Method: To screen for CB1954 nitroreductase activity of each of the functionally expressed genes, lysates of E. coli cells containing the NfnB or YwrO homolog expression plasmid were added to reaction mixtures containing CB1954 and the concentration of CB1954 was monitored by HPLC (see Methods below). […] Such activity was not observed in the lysates containing VchYwrO, PaeYwrO1 or PaeYwrO2.
as §8, §3
To determine initial reaction rates during preliminary screening of CB1954 nitroreductase candidates, aliquots of the reaction mixtures taken at various times were injected into a Partisphere SCX (100×4.7 mm) HPLC column and eluted isocratically at 2 ml/min with 130 mM NaH2PO4 (pH 5.0). Eluates were continuously monitored at 260 nm and 325 nm, and the absorbance spectra of eluting components recorded using a photodiode array detector. […]

[11] = other: CB1954, cofactor NADPH, 37° C.

HsoNTR, Haemophilus somnus 129PT nitroreductase (NfnB homolog, ZP_00122352.1), wild type, SEQ ID NO: 2 (Histophilus somni)
Km [1]: 644 µM
Km ([2]; other: 37° C.): 22.03 µM
kcat ([2]; other: CB1954, cofactor NADH): 3.5 (NADH) S^−1
kcat ([2]; other: CB1954, cofactor NADPH): 13.13 (NADPH) S^−1

NmeNTR, Neisseria meningitidis MC58 nitroreductase (NfnB homolog, Q9K022), wild type, SEQ ID NO: 1 (Neisseria meningitidis MC58)
Km [3]: 188 µM
Km ([4]; other: 37° C.): 2.47 µM
kcat ([4]; other: 37° C.): 4.04 (NADH)
kcat/Km ([4]; other: 37° C.): 1.636 (NADH)
kcat [4, 11]: 15.23 (NADPH)
kcat/Km [4, 11]: 6.166 (NADPH)

NC(=O)C1=CN([C@@H]2O[C@H](COP(=O)(O)OP(=O)(O)OC[C@H]3O[C@@H](n4cnc5c(N)ncnc54)[C@H](O)[C@@H]3O)[C@@H](O)[C@H]2O)C=CC1 [NADH]
Km [5]: 6 µM
Km [6]: 5 µM
Km [7]: 820 µM

B1: NmeNTR: NfnB homolog nitroreductase from Neisseria meningitidis MC58, accession Q9K022, SEQ ID NO: 1 (protein, listed as Neisseria meningitidis)
chain: MTVLSKEQVLSAFKNRKSCRHYDAARKISAEDFQFILELGRLSPSSVGSEPWQFIVVQNPEIRQAIKPFSWGMADALDTASHLVVFLAKKNARSDSPFMLESLKRRGVTEPDAVAKSLARYQAFQADDIKILDDSRALFDWCCRQTYIALANMMTGAAMAGIDSCPVEGFNYAEMERILSGQFGLFDAAEWGVSVAATFGYRVQEIATKARRPLEETVIWA
Km [8]: < 6.3 µM
Km^CB1954 relative to the lowest previously reported (NfsA) [8]: seven-fold lower
Kcat/K^CB1954 ([8]; NADH): 1.636 (NADH) s^−1μM^−1
Kcat/K^CB1954 ([8]; NADPH): 6.166 (NADPH) s^−1μM^−1
specific menadione reductase activity of lysates versus control [9]: significantly elevated above the control
CB1954 nitroreductase activity (decrease in CB1954 concentration) [10]: caused a decrease in CB1954 concentration; also recorded: rapidly consumed

B2: HsoNTR: NfnB homolog nitroreductase from Haemophilus somnus 129PT, accession ZP_00122352.1, SEQ ID NO: 2 (protein, listed as Haemophilus somnus)
chain: MTTISKEHVLDSFNRRASTRYYDPNKKISNEDFSYVLEFARLSPSSVGSEPWHFLVIQNPELRAKLKPVSWGMATQIDDASHLVVILAKKNARYDSEFLVQSMKRRGLSGEQIQATKEKYHLFQAEHMKTLENDRTLFDWASKQTYIALANMLTGAALIGIDSCPIEGFNYEKVNQILTDAGVLDSDEWGVSVMATFGYRAKEIKPKSRKSLDEIVTWVK
Kcat/K^CB1954 ([8]; NADH): 0.159 (NADH) s^−1μM^−1
Kcat/K^CB1954 ([8]; NADPH): 0.596 (NADPH) s^−1μM^−1
specific menadione reductase activity of lysates versus control [9]: significantly elevated above the control
CB1954 nitroreductase activity (decrease in CB1954 concentration) [10]: caused a decrease in CB1954 concentration; also recorded: rapidly consumed
